{
  "source": "patent US20240043504A1",
  "about": "(published 2024)",
  "binders": {"B1": {"name": "mAb10956 (antibody, V domains shown)", "VH": "EVQLVESGGGLVQPGGSLRLSCAASGLTVSSNYMSWVRQAPGKGLEWVSVIYSGGSTFYADSVKGRFTISRDNSKNTLYLQMNSLRAEDTAVYYCARDLIKYGMDVWGQGTTVTVSS", "VL": "not shown"}, "B2": {"name": "mAb10957 (antibody, V domains shown)", "VH": "B1 VH with L27V, Y79F, A87I, I100G, K101P", "VL": "DIQLTQSPSFLSASVGDRVTITCRASQGISSYLAWYQQKPGKAPKLLIYAASTLQSGVPSRFSGSGSGTQFILTISSLQPEDFATYYCQQLNSYPGFTFGPGTKVDIKR"}, "B3": {"name": "mAb10954 (antibody, V domains shown)", "VH": "EVQLVESGGGLVQPGGSLRLSCAASGITVSSNYMSWVRQAPGKGLEWVSLIYSGGSTYYADSVKGRFTISRDNSKNTLYLQMNSLRVEDTAVYYCARDHGMAAAGYNYWGQGTLVTVSS", "VL": "DIQMTQSPSSLSASVGDRVTITCQASQDINKYLNWYQQKPGKAPKLLIYDASNLETGVPSRFSGSGSGTDFTFTINSLQPEDFATYFCQQYDNLPPAFGQGTKVEIKR"}, "B4": {"name": "mAb10955 (antibody, V domains shown)", "VH": "EVQLVESGGGLVQPGGSLRVSCAASGFTVSRNYMSWVRQAPGKGLEWVSVIYSGGSTFYADSVKGRFTISRDNSKNTLYLQMNSLRAEDTAIYYCARYIPRFDPWGQGTLVTVSS", "VL": "DIQMTQSPSSLSASVGDRVTITCQASQDISNYLNWFQQKPGRAPKLLIYDASNLETGVPSRFSGSGSGTDFTFTISSLQPEDIATYYCQQYDNLPITFGQGTRLEIKR"}, "B5": {"name": "mAb10939 (antibody, V domains shown)", "VH": "B1 VH with S35N, A40V, T57K, A60V, D72H, A87P, A96T, L99A, I100Q, K101Y", "VL": "DIQMTQSPSSLSASVGDRVTITCRASQSISTYLHWYQQKPGEAPKLLIYAASSLQSGVPSRFSGSGSGTDFTLTISSLQPEDFATYYCQQSYSTPPEIFGQGTKLEIKR"}, "B6": {"name": "mAb10965 (antibody, V domains shown)", "VH": "EVQLVESGGGLIQPGGSLRLSCAASVFTVSYNYMSWVRQAPGKGLEWVSVIYSGGSTYYADSVKGRFTISRDNSKNTLYLQMNSLRAEDTAVYYCARALPGWGGSFEYFDYWGQGTLVTVSS", "VL": "not shown"}, "B7": {"name": "mAb10984 (antibody, V domains shown)", "VH": "EVQLVESGGGLVQPGGSLRLSCAASGLTVNRNYMSWVRQAPGKGLEWVSLIYSGGSTYYADSVKGRFTISRDNSKNTLYLQMNSLRLEDTAVYYCARGELGIPYGMDVWGQGTTVTVSS", "VL": "QSVLTQPPSVSAAPGQKVTISCSGSSSNIGNNYVSWYQQLPGTAPKLLIYDNNKRPSGIPDRFSGSKSGTSATLGITGLQTGDEADYYCGTWDSSLSAGVFGGGTKLTVLG"}, "B8": {"name": "mAb10932 (antibody, V domains shown)", "VH": "EVQLVESGGGLVQSGGSLRLSCAASGLTVSSNYMSWVRQAPGKGLEWVSVIYSGGSTFYSDSVKGRFTISRHNSKNTLYLQMNSLRAEDTAVYYCARARGDAFDIWGQGTMVTVSS", "VL": "not shown"}, "B9": {"name": "mAb10989 (antibody, V domains shown)", "VH": "QVQLVQSGAEVKKPGASVKVSCKASGYIFTGYYMHWVRQAPGQGLEWMGWINPNSGGANYAQKFQGRVTLTRDTSITTVYMELSRLRFDDTAVYYCARGSRYDWNQNNWFDPWGQGTLVTVSS", "VL": "QSALTQPASVSGSPGQSITISCTGTSSDVGTYNYVSWYQQHPGKAPKLMIFDVSNRPSGVSDRFSGSKSGNTASLTISGLQAEDEADYYCSSFTTSSTVVFGGGTKLTVLG"}, "B10": {"name": "mAb10936 (antibody, V domains shown)", "VH": "QVQLVESGGGVVQPGRSLRLSCAASGFTFRNYGMHWVRQAPGKGLEWVSVIWYDGSNRYYADSVKGRFTISRDTSKNTLYLQMNSLRAEDTAVYYCARDPPITGTTGGDAFDIWGQGTMVTVSS", "VL": "not shown"}, "B11": {"name": "mAb10966 (antibody, V domains shown)", "VH": "EVQLVESGGGLVQPGGSLRLSCAASGLTVSSNYMSWVRQAPGKGLEWVSVIYSGGSTFYADSVKGRFTISRDNSKNTLYLQMNSLRPEDTAVYYCAREGRIAATGYGMDVWGQGTTVTVSS", "VL": "not shown"}, "B12": {"name": "mAb10982 (antibody, V domains shown)", "VH": "EVQLVESGGGLVQPGGSLRLSCAASGLTVSSNYMSWVRQAPGKGLEWVSVIYSGGTTYYADSVKGRFTISRHNSKNTLSLQMNSLRAEDTAVYYCARGEGANYYGMDVWGQGTTVTVSS", "VL": "QSVLTQPPSVSGAPGQRVTISCTGSSSNIGTGYDVHWYQQLPGTAPKLLIYGNSNRPSGVPDRFSGSKSGTSASLAITGLQAEDEADYYCQSYDSSLSGYVVFGGGTKLTVLG"}, "B13": {"name": "mAb10985 (antibody, V domains shown)", "VH": "EVQLVESGGGLVQPGRSLRLSCAASGFTFDDYAMHWVRQAPGKGLEWVSGISWNRGSIGYADSVKGRFTISRDNAKNSLYLQMSSLRAEDTALYYCAKDGERWDSVVVPSARNGMDVWGQGTTVTVSS", "VL": "B12 VL with T31A, Y100S, V101Y, G105T, L109V"}, "B14": {"name": "mAb10986 (antibody, V domains shown)", "VH": "EVQLVESGGGLVQPGGSLRLSCAASEFTVSSNYMSWVRQAPGKGLEWVSVIYSGGSTFYADSVKGRFTISRDNSKNTLYLQMNSLRAEDTAVYYCARALPYGDLHFDYWGQGTLVTVSS", "VL": "B12 VL with S54T, G99D, Y100S, V101Y, G105T, L109V"}, "B15": {"name": "mAb10921 (antibody, V domains shown)", "VH": "EVQLVESGGGLVQPGGSLRLSCAASGITVSSNYMSWVRQAPGKGLEWVSVIYSGGSTFYADSVKGRFTISRHNSKNTLYLQMNSLRAEDTAVYYCARERNFDAFDIWGQGTMVTVSS", "VL": "B2 VL with L4M, F10S, L11V, Y32W, T53S, Q70D, I72T, L91A, Y94F, G96L"}, "B16": {"name": "mAb10923 (antibody, V domains shown)", "VH": "QVQLVQSGAEVKKPGASVKVSCKASGYTFINYYIHWVRQAPGQGLEWMGWINPNSGGTNYAQKFQGRVTMTRDTSISTAYMELSRLRSDDTAVYYCAIITIFGVVTWFDPWGQGTLVTVSS", "VL": "not shown"}, "B17": {"name": "mAb10971 (antibody, V domains shown)", "VH": "B1 VH with V12I, L27V, A60S, T68S, I100Y, K101Y", "VL": "B2 VL with S31T, Q70E, I72T, N92D, F97L, P101G, D106E"}, "B18": {"name": "mAb10930 (antibody, V domains shown)", "VH": "EVQLVESGGGLVQPGRSLRLSCAASGFTFDDYAMYWVRQAPGKGLEWVSGISWNSGSIGYADSVKGRFTISRDNAKNSLYLQMNSLRAADTALYYCAKDKDWNSRGYYYYGMDVWGQGTTVTVSS", "VL": "not shown"}, "B19": {"name": "mAb10934 (antibody, V domains shown)", "VH": "not shown", "VL": "B3 VL with N30W, K31N, L33I, E55K, N76S, F83I, F87Y, Y91H, N93D, A97T"}, "B20": {"name": "mAb10967 (antibody, V domains shown)", "VH": "EVQLVESGGGLVQPGGSLRLSCAASGFTVSSNYMSWVRQAPGKGLEWVSVIYPGGSTFYADSVKGRFTISRDNSKNTLYLQMNSLRAEDTAVYYCARDQRDFAWGQGTLVTVSS", "VL": "B4 VL with F36Y, R42K, S77G, I96P"}, "B21": {"name": "mAb10938 (antibody, V domains shown)", "VH": "EVQLVESGGGLVQPGGSLRLSCAVSGFTVSSNYMSWVRQAPGKGLEWVSLIYSGGSTFYADSVKGRFTISRHNSKNTLYLQMNSLRAEDTAVYYCAREGGYSYDYNYWGQGTLVTVSS", "VL": "B4 VL with S30R, F36Y, R42K, S65I"}, "B22": {"name": "mAb10935 (antibody, V domains shown)", "VH": "EVQLVESGGGLVQPGGSLRLSCAASGFTVSSNYMSWVRQAPGKGLEWVSLIYSGGSTYYADSVKGRFTISRHNSKNTLYLQMNSLRSEDTAVYYCARVPLGDYYYGMDVWGQGTTVTVSS", "VL": "B3 VL with N76S, F83I, F87Y, Y91S, P96L, A97T, Q100G"}, "B23": {"name": "mAb10920 (antibody, V domains shown)", "VH": "QVQLVESGGGVVQPGRSLRLSCAASGFTFSYYGMHWVRQAPGKGLEWVAVIWYDGSNKFYADSVKGRFTISRDNSKNTLYLQMNSLRAEDTAVYYCAAARPGYYYGMDVWGQGTTVTVSS", "VL": "DIQMTQSPSSLSASVGDRVTITCRASQGISNYLAWFQQKPGKAPNSLIYAASSLQRGVPSKFSGSGSGTDFTLTISSLQPEDFATYYCQQYNSYPRTFGQGTKVEIKR"}, "B24": {"name": "mAb10969 (antibody, V domains shown)", "VH": "QVQLVESGGGVVQPGRSLRLSCAASGFTFSSYAMHWVRQAPGKGLEWVAVISYDGSNKYYADSVKGRFTISRDNSKNTLYLQMNSLRAEDTAVYYCARDGRTITMVRGVIDDAFDIWGQGTMVTVSS", "VL": "not shown"}, "B25": {"name": "mAb10937 (antibody, V domains shown)", "VH": "QITLKESGPTLVKPTQTLTLTCTFSGFSLSTNVVGVGWIRQPPGKALEWLALIYWNDDKRYSPSLKSRLTITKDTSKNQVVLTMTNMDPVDTATYYCAHGPTGDYFDYWGQGTLVTVSS", "VL": "not shown"}, "B26": {"name": "mAb10964 (antibody, V domains shown)", "VH": "QVQLQESGPGLVKPSETLSLTCTVSGGSINNYYWIWIRQPPGKGLEWIGYIYHSGSTNYNPSLKSRVTISVDTSKNQFSLKVSSVTAADTAVYYCANMVRGVYEDDYWGQGTLVTVSS", "VL": "DIQMTQSPSSLSASVGDRVTITCRASQSISNYLNWYQQKPGKAPKLLIFAASSLRSGVPSRFSGSGSGTDFTLTISSLHPEDFATYYCQQNYNTPLTFGPGTKVDIKR"}},
  "note": "Changes are numbered by the printed parent chain.",
  "data": [
    {"target": "SARS-CoV-2 RBD extracellular domain expressed with a C-terminal mouse IgG2a (SARS-COV-2 RBD-mFc) (SARS-CoV-2)", "experiment": "not given", "units": {"Kd": "pM", "t1/2": "h"}, "values": [
      {"binder": "B1", "Kd": 395, "t1/2": 1.3},
      {"binder": "B2", "Kd": "≤ 27.9", "t1/2": "≥ 19.2"},
      {"binder": "B3", "Kd": "≤ 17.3", "t1/2": "≥ 19.2"},
      {"binder": "B4", "Kd": 59.2, "t1/2": 8.23}
    ]},
    {"target": "SARS-COV-2 RBD-mFc (SARS-CoV-2)", "experiment": "Luminex beads", "values": [
      {"binder": "B5", "binding result": "binds"},
      {"binder": "B6", "binding result": "binds"},
      {"binder": "B7", "binding result": "binds"},
      {"binder": "B8", "binding result": "binds"},
      {"binder": "B9", "binding result": "binds"},
      {"binder": "B10", "binding result": "binds"},
      {"binder": "B11", "binding result": "binds"},
      {"binder": "B12", "binding result": "binds"},
      {"binder": "B13", "binding result": "binds"},
      {"binder": "B14", "binding result": "binds"},
      {"binder": "B15", "binding result": "binds"},
      {"binder": "B16", "binding result": "binds"},
      {"binder": "B17", "binding result": "binds"},
      {"binder": "B18", "binding result": "binds"},
      {"binder": "B19", "binding result": "binds"},
      {"binder": "B20", "binding result": "binds"},
      {"binder": "B21", "binding result": "binds"},
      {"binder": "B22", "binding result": "binds"},
      {"binder": "B23", "binding result": "binds"},
      {"binder": "B24", "binding result": "binds"},
      {"binder": "B25", "binding result": "binds"},
      {"binder": "B26", "binding result": "binds"}
    ]}
  ]
}
